The record followed here is US11892449B2, “Therapeutics and point of care lateral-flow test for virus and antibodies using tagged assembled proteins” (priority 2021, dated 2024).

The target in one test is p300. The test is described as follows: ELISA binding to p300, total binding kinetics. To be noted: for Kd: ELISA, average of three independent trials. The source says:
FIG. 21. H-MAP1 (H-MAP) and H-MAP2 ELISA fitted with total binding kinetics using Prism 7 (GraphPad) with calculated binding affinities as an average of three independent trials.
On the technique in general: An ELISA detects its analyte on a solid surface through an enzyme-linked reagent.

A further test deals with HIF1α. The test is described as follows: Hypoxia-inducible luciferase reporter in MDA-MB-231 cells. The test is classed as cell-based. As to conditions: MDA-MB-231-Luciferase cells, hypoxia induced with 100 μM CoCl2, increasing concentrations. The source says:
FIG. 22. […] Results are normalized to maximum luciferase intensity of two independent trials.
We will further characterize the HIF1α-MAP1 and iterative HIF1α-MAP designs as described in the following section. For example, to increase the likelihood of translocation to the nucleus, HIF1α-MAP-2 (H-MAP-2) was designed by addition of nuclear localization sequence, PKKKRKV (SEQ ID NO:7), at the N-terminus. […] To test the ability of HIF1α-MAPs to modulate hypoxia-inducible signaling, HIF1α-MAP-2 was incubated with triple negative breast cancer cell line, MDA-MB-231, stably transfected a construct to express firefly luciferase under normoxic and hypoxic (induced with final concentration 100 μM CoCl2) conditions.
(In a reporter assay the amount or activity of a reporter protein is the signal.)

The Kd is the constant that tells how readily two partners part at equilibrium. native HIF1α [reference compound] yielded a Kd at p300 of 0.38 nM.

B1: H-MAP-2 (protein)
chain: MRGSPKKKRKVGGGGSHHHHHHHHGSACELAATATATATATATAACGDLAPQMLRELQETNAALQDVRELLRQQVKEITFLKNTLLEIWKAAKEAAKEAAAKIEEQAKTFLDKFNGEELLRALDQVN
Consider B1, for which the Kd on p300 turned out to be 0.0382 nM. Further, the “expression of luciferase (hypoxia-inducible gene expression)” value in the test with HIF1α is “inhibitions of HIF1α”; in the test with HIF1α (listed as HIF1α-MAP-2), “decreased expression of luciferase”.

B2: HIF1α-MAP-1 (protein)
chain: MRGSHHHHHHGSACELAATATATATATATAACGDLAPQMLRELQETNAALQDVRELLRQQVKEITFLKNTLLEIWKAAKEAAKEAAAKIEEQAKTFLDKFNGEELLRALDQVN
B2 returned a Kd at p300 of 0.00808 nM. Besides, in the test on p300 (binding to p300), the “fold improvement in comparison to native HIF1α” value was 47 fold.
